Laboratory results reported in patent publication US20260234242A1 (HAINAN SIMCERE ZAIMING PHARMACEUTICAL, published 2026).

T1: human CDH6 on tumor cells (OVCAR3 cells, PA-1 cells) (human, UniProt P55285 54-790)
T1 sequence: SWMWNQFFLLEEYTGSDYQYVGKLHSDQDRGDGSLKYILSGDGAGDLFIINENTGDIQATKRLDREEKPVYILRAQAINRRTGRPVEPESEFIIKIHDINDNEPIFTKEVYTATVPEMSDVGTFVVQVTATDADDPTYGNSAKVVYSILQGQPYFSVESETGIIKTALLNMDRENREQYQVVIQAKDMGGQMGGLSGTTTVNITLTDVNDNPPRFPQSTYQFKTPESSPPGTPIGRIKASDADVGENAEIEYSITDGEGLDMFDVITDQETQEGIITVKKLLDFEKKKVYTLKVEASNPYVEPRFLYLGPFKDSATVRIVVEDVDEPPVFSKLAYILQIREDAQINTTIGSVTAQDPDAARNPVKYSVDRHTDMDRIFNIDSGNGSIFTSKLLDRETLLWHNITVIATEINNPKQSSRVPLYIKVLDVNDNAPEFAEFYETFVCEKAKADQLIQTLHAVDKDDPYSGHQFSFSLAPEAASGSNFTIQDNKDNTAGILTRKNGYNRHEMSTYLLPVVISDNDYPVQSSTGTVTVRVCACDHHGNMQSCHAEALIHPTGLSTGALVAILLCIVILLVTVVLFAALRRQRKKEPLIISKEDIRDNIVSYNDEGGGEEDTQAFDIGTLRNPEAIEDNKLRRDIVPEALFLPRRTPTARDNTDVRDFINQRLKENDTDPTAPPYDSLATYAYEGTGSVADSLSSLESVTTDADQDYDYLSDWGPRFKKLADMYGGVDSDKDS

T2: monkey CDH6 protein (cynoCDH6 ECD-his) (monkey (cyno), UniProt A0A2K5TW62 19-615)
T2 construct: range 19-615; also called Cyno CDH6-his; not shown: his tag
T2 sequence: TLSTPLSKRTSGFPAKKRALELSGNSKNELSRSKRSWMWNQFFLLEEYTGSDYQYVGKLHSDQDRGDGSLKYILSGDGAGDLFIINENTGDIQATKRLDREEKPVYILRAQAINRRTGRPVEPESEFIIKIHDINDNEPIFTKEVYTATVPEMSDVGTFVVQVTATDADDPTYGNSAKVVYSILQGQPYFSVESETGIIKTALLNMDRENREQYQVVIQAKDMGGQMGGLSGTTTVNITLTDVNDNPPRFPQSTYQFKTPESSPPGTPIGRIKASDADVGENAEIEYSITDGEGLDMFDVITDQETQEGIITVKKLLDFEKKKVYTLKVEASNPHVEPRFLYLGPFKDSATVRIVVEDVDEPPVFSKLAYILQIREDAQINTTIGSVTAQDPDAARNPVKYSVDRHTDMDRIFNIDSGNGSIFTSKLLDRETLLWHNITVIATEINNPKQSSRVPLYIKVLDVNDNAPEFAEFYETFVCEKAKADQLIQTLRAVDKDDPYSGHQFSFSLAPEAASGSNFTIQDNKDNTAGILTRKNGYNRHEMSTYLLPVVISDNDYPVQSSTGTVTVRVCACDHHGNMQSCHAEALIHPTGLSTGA


Columns and labels:
[1] = biological target: T1, human CDH6 on tumor cells (OVCAR3 …); experiment: FACS, OVCAR3 cells, 4° C. arm of endocytosis assay, antibody diluted to 10 µg/mL
Procedure: OVCAR3 cells were cultured until a confluence of 90% was reached, the medium was removed by pipetting, the cells were washed once with PBS, and then treated with an enzyme-free cell dissociation solution (Versene, purchased from Gibco, Cat. No. 15040-066) and the cells were collected. The cells were washed once with PBS, counted, resuspended to 2×10⁶ cells/mL in an FACS buffer (PBS+2% FBS), and then added to two 96-well plates at 50 μL/well. The chimeric antibodies were diluted with FACS buffer (PBS+2% FBS) to 10 μg/mL and separately added to the two 96-well plates at 50 μL/well, and the plates were incubated at 4° C. for 1 h. After the cells were washed 3 times with PBS, the cells were resuspended in an FACS buffer. One 96-well plate was incubated at 4° C. for 1 h, and the other 96-well plate was incubated at 37° C. for 1 h. […] After the plates were centrifuged and washed 2 times with PBS, the cells were resuspended in an FACS buffer. The mean fluorescence intensity (MFI) was measured using FACS Canton II (BD). The chimeric antibodies tested all had good endocytic activity.

[2] = biological target: T2, monkey CDH6 protein (cynoCDH6 ECD-his); experiment: ELISA, coated antigen
Procedure: Human CDH6 protein (hCDH6 ECD-his, conventionally synthesized), monkey CDH6 protein (cynoCDH6 ECD-his, conventionally synthesized; the cynoCDH6 ECD sequence was derived from Uniprot #A0A2K5TW62 (19-615)), and murine CDH6 protein (mCDH6 ECD-his, conventionally synthesized; the mCDH6 ECD sequence was derived from Uniprot #P97326 (19-615)) were diluted with PBS to a final concentration of 1 μg/mL, and added to a 96-well ELISA plate at 100 μL/well. The plate was incubated at 4° C. overnight. The next day, the plate was washed 3 times with a plate washing solution (PBS+0.01% (v/v) Tween 20), and a blocking buffer (PBS+0.01% (v/v) Tween 20+2% (w/w) BSA) was added for blocking at room temperature for 2 h. The blocking buffer was discarded, and the plate was washed 3 times. The chimeric antibodies were diluted with 1% BSA+PBS (purchased from Cytiva, Cat. No. SH30264.01) and added to the 96-well plate at 50 μL/well. After incubation at 37° C. for 2 h, the plate was washed 3 times with a plate washing solution. […] The plate was incubated at 37° C. for 1 h and then washed 5 times with a plate washing solution. A TMB substrate (purchased from Seracare, Cat. No. 5120-0077) was added at 50 μL/well and incubated at room temperature for 10 min, then a stop solution (1.0 N HCl) was added at 50 μL/well. OD450 nm values were read using a microplate reader (Biotek). Analysis was performed by the GraphPad Prism software, data were fitted, and EC50 values were calculated. The chimeric antibodies tested all had strong binding to the human CDH6 protein, the monkey CDH6 protein, and the murine CDH6 protein.

Row | Binder | MFI_4° C. [1] [MFI] | EC50 [2] [nM] | Max OD450 [2] [OD450]
1 | CHI-CDH6-9 (antibody, human IgG1, kappa, V domains shown, also called chimeric antibody of murine CDH6-9) VH: QVQLQQPGAELVKPGASVKLSCKASGYTFTGYWMHWVRQRPGQGLEWIGEINPNNGGTNCNEQFKNKATLTVDKSSSTAYMQLSSLTSEDSAVFYCTISFGNYLFFDVWGAGTTVTVSS VL: DIQMTQSPASLAASVGETITITCQASENIYFSLAWYQQKQGKSPQLLIYNANTLEDGVPSRFVGSGSGTQYSMKINSIQPEDTATYFCDQTYDFPWTFGGGTKLEIKR | 11000 | 0.026 | 2.78
2 | CHI-CDH6-6 (antibody, human IgG1, kappa, V domains shown, also called CHI-hCDH6-6; chimeric antibody of murine CDH6-6) VH: EVQLQQSGPELVKPGDSVKMSCKASGYTFTDYYMAWVRQSHRKSLEWIGYIFPNSGGTDYSQKFKGKATLTVDKSSSTVYMELHSLTSEDSAVYYCARELGADYGDYYAMDHWGQGTSVSVSS VL: DIQMTQSPASLSASVGETVTITCRASENIDSYLAWYQQKQGKSPQLLVYSATLLADGVPSRFSGSGSGTQYSLKINSLKSEDVARYYCQHYYRTPPTFGSGTKLEIKR | 9930 | 0.03 | 2.24
3 | CHI-CDH6-7 (antibody, human IgG1, kappa, V domains shown, also called CH1-CDH6-7; chimeric antibody of murine CDH6-7) VH: EVKLVESGGGLVKPGGSLKVSCAASGFTFSDHGMAWVRQAPGKGPEWVAFISNLAYSIYYADTVTGRFTISRENAKNTLYLEMSSLRSEDTAMYYCARVYVKWYFDVWGAGTTVTVSS VL: DIQMTQSPASLSASVGETVTITCRASENIDSYLAWYQQKQGKSPQLLVFAATLLADGVPSRFSGSGSGTQYSLKINSLQSEDVARYYCQHYYSTPLTFGAGTKLELKR | 5580 | 0.178 | 2.05
4 | CHI-CDH6-8 (antibody, human IgG1, kappa, V domains shown, also called chimeric antibody of murine CDH6-8) VH: EVQLQQSGPELVKPGDSVKMSCKASGYTFTDYYMAWIKQNHGKSLEWIGYIYPNNGGTDYNQKFRGKATLTVDKSSSAAYMELHSLTSEDSAVYYCAREIGTLYGDYYAMDYWGQGTSVTVSS VL: DIQMTQSPASLSASVGETVTITCRASENIDSYLAWYQQKQGKSPQLLVYTATLLADGVPSRFSGSGSGTQYSLKINSLQSEDVARYYCQHYYSTPPTFGSGTKLEIKR | 10100 | 0.026 | 2.12
5 | CHI-CDH6-4 (antibody, human IgG1, kappa, V domains shown, also called CH1-CDH6-4; chimeric antibody of murine CDH6-4) VH: QVQLQQSGPELVKPGASVKISCKASGYAFSNFWMNWVKQRPGKGLEWIGWIYPGDGDTNYNGKFKDKATLTADKSSSTAYIQLSSLTSEDSAVYFCARLYDAWGFFDYWGQGTTLTVSS VL: QIVLTQSPAIMSASPGQKVTITCSASSSVNYMHWYQQKLGSSPKLWIYDKSKLAPGVPARFSGSGSGTSYSLTISSMEAEDAASYFCHQWSSYPPMTFGGGTKLEIKR | 9520 | 0.034 | 2.23
6 | CHI-CDH6-3 (antibody, human IgG1, kappa, V domains shown, also called CH1-CDH6-3; chimeric antibody of murine CDH6-3) VH: QVQLQQPGAELVKPGASVKLSCKASGYTFTSYWIHWVKQRPGQGLEWIGEINPSNGVTNCNENFKSKATLTVDKSSSTAYMQLSSLTSEDSAVYYCTIPNLLWWYFDVWGAGTTVTVSS VL: DIQMTQSPASLSVSVGETVTITCRASENIYSNLAWYQQKQGKSPQLLVYEATNLADGVPSRFSGSGSGTQYSLKINSLQSEDFGSYYCQHFWGTLWTFGGGTKLEIKR | 9280 | 0.041 | 2.64
7 | CHI-CDH6-11 (antibody, human IgG1, kappa, V domains shown, also called chimeric antibody of murine CDH6-11) VH: QIQLQQSGPELVKPGASVRISCKASGYTFTDYYITWVKLRPGQGLEWIGWIYPGSVNIKYNEKFKGKATLTVDTSSSTAYMQLNSLTSEDSAVYFCARGGYSWFPYWGQGTLVTVSA VL: NIVMTQSPKSMSMSVGERVTLSCKASENVHTYVSWYQQKPEQSPKLLFYGASTRNTGVPDRFTGSGSATDFTLTISSVQAEDLADYYCGQSYSYPYTFGSGTKLEIKR | 10400 | 0.032 | 2.32
8 | CHI-CDH6-1 (antibody, human IgG1, kappa, V domains shown, also called CHI-hCDH6-1; CH1-CDH6-1) VH: QVQLQQPGAELVRPGSSVKLSCKASGYTFTNYWMHWVKQRPIEGLEWIGDIDPSHSETHYTQKFKDKATLTVDKSSSTAYMQLSSLTSEDSAVYYCARGDLGRFDYWGQGTTLTVSS VL: DIVLTQSPASLAVSLGQRATISCRASESVSIHGTHLMHWYQQKSGQPPKLLIYAASNLESGVPARFSGSGSETDFTFNIHPVEEEDAATYFCQQSFEDPWTFGGGTKLEIKR | 10600 | 0.023 | 2.54
9 | CHI-CDH6-10 (antibody, human IgG1, kappa, V domains shown, also called chimeric antibody of murine CDH6-10) VH: QVQLQQPGAELVKPGTSVKMSCKASGYTFTSDWIAWVKQRPGQGLEWIGDIYPGSGRTHNNEKFNFKATLTVDTSSNTAYMQLSSLTSEDSAVYFCARPMLGRFDYWGQGTTLTVSS VL: DIVLTQSPASLAVSLGQRATISCRASESVSIHGTHLMHWYQQKPGQPPKLLIYAASNLESGVPARFSGSGSETDFTLNIHPVEEEDAATYFCQQSFEDPFTFGSGTKLEIKR | 10100 | 0.026 | 2.26
10 | CHI-CDH6-2 (antibody, human IgG1, kappa, V domains shown, also called chimeric antibody of murine CDH6-2) VH: EVQLQQSGPELVKPGASVRISCKASGYTFTDYYMNWVKQSHGKSLEWIGDIDPNNANTTYNQKFKGKATLTVDKSSSTAYMELRSLTSEDSAVYSCASFGYDVEWFGYWGQGTLVTVSA VL: QIVLTQSPALMSASPGEKVTMTCSASSSVSYMYWYQQKPRSSPKPWIYLTSNLASGVPARFSGSGSGTSYSLTISSMEAEDAATYYCQQWSSNPFTFGSGTKLEIKR | 11100 | 0.022 | 2.12
11 | CHI-CDH6-5 (antibody, human IgG1, kappa, V domains shown, also called CH1-CDH6-5; chimeric antibody of murine CDH6-5) VH: QVQLQQSGAELVRPGTSVKMSCKAAEYTFTNYWIGWVKQRPGHGLEWIGDLYPGGDHANYNEKFEGKATLTADTSSSTAYMQLSSLTSEDSAIYYCARGMLTTGFDSWGQGTTLTVSS VL: DIVMSQSPSSLAVSAGEKVTMSCKSSQSLFNSRTRKNYLAWYQQKPGQSPKLLIYWASTRESGVPDRFTGSGSGTDFTLTISSVQAEDLAVYYCKQSYYLRTFGGGTKLEIKR | 8810 | 0.046 | 1.96
